Experimental data: US10800847
Each block holds one substance with its values, some of them ahead of it.

What was measured:
[1] = biological target: HLA-B*1801 (B18) (human); assay: Luminex iBeads (#6), IVIg diluted 1:8
[2] = biological target: HLA-B*1301 (B13) (human); assay: Luminex iBeads (#6), IVIg diluted 1:8
[3] = biological target: HLA-B*1501 (B62) (human); assay: Luminex iBeads (#6), IVIg diluted 1:8
[4] = biological target: HLA-B*1516 (B63) (human); assay: Luminex iBeads (#6), IVIg diluted 1:8
[5] = biological target: HLA-B*1511 (B75) (human); assay: Luminex iBeads (#6), IVIg diluted 1:8
[6] = biological target: Serum albumin on negative control beads (HSA/BSA) (human or bovine); assay: Luminex iBeads (#6), IVIg diluted 1:8
[7] = biological target: HLA-B*0702 (B7) (human); assay: Luminex iBeads (#6), IVIg diluted 1:8
[8] = biological target: HLA-B*1510 (B71) (human); assay: Luminex iBeads (#6), IVIg diluted 1:8
[9] = biological target: HLA-B*1402 (B65) (human); assay: Luminex iBeads (#6), IVIg diluted 1:8
[10] = biological target: HLA-B*1513 (B77) (human); assay: Luminex iBeads (#6), IVIg diluted 1:8
[11] = biological target: HLA-B*1512 (B76) (human); assay: Luminex iBeads (#6), IVIg diluted 1:8
[12] = biological target: HLA-B*1503 (B72) (human); assay: Luminex iBeads (#6), IVIg diluted 1:8
[13] = biological target: HLA-B*1502 (B75) (human); assay: Luminex iBeads (#6), IVIg diluted 1:8
[14] = biological target: HLA-B*0801 (B8) (human); assay: Luminex iBeads (#6), IVIg diluted 1:8
[15] = biological target: HLA-B*1302 (B13) (human); assay: Luminex iBeads (#6), IVIg diluted 1:8
[16] = biological target: HLA-Cw*0602 (Cw6) (human); assay: Luminex, iBeads (#6), 1:8
[17] = biological target: HLA-Cw*0702 (Cw7) (human); assay: Luminex, iBeads (#6), 1:8
[18] = biological target: HLA-Cw*1802 (Cw18) (human); assay: Luminex, iBeads (#6), 1:8
[19] = biological target: HLA-A*2902 (A29) single antigen on beads (human); assay: Luminex iBeads (#6), IVIg 1:8
[20] = biological target: HLA-A*3001 (A30) single antigen on beads (human); assay: Luminex iBeads (#6), IVIg 1:8
[21] = biological target: HLA-A*3002 (A30) single antigen on beads (human); assay: Luminex iBeads (#6), IVIg 1:8
[22] = biological target: HLA-A*3101 (A31) single antigen on beads (human); assay: Luminex iBeads (#6), IVIg 1:8
[23] = biological target: HLA-A*3301 (A33) single antigen on beads (human); assay: Luminex iBeads (#6), IVIg 1:8
[24] = biological target: HLA-A*3303 (A33) single antigen on beads (human); assay: Luminex iBeads (#6), IVIg 1:8
[25] = biological target: HLA-A*4301 (A43) single antigen on beads (human); assay: Luminex iBeads (#6), IVIg 1:8
[26] = biological target: HLA-A*3401 (A34) single antigen on beads (human); assay: Luminex iBeads (#6), IVIg 1:8
[27] = biological target: HLA-A*3601 (A36) single antigen on beads (human); assay: Luminex iBeads (#6), IVIg 1:8
[28] = biological target: HLA-A*6601 (A66) single antigen on beads (human); assay: Luminex iBeads (#6), IVIg 1:8
[29] = biological target: HLA-A*3201 (A32) single antigen on beads (human); assay: Luminex iBeads (#6), IVIg 1:8
[30] = biological target: HLA-A*3402 (A34) single antigen on beads (human); assay: Luminex iBeads (#6), IVIg 1:8
[31] = biological target: HLA-A*6801 (A68) single antigen on beads (human); assay: Luminex iBeads (#6), IVIg 1:8
[32] = biological target: HLA-A*6602 (A66) single antigen on beads (human); assay: Luminex iBeads (#6), IVIg 1:8
[33] = biological target: HLA-Cw*0602 (Cw6) (human); assay: Luminex, regular beads (#7), 1:8
[34] = biological target: HLA-Cw*1701 (Cw17) (human); assay: Luminex, regular beads (#7), 1:8
[35] = biological target: HLA-Cw*1402 (Cw14) (human); assay: Luminex, regular beads (#7), 1:8
[36] = biological target: HLA-Cw*0302 (Cw10) (human); assay: Luminex, regular beads (#7), 1:8
[37] = biological target: HLA-Cw*0501 (Cw5) (human); assay: Luminex, regular beads (#7), 1:8
[38] = biological target: HLA-Cw*0702 (Cw7) (human); assay: Luminex, regular beads (#7), 1:8
[39] = biological target: HLA-Cw*0304 (Cw10) (human); assay: Luminex, regular beads (#7), 1:8
[40] = biological target: HLA-Cw*0102 (Cw1) (human); assay: Luminex, regular beads (#7), 1:8
[41] = biological target: HLA-Cw*0202 (Cw2) (human); assay: Luminex, regular beads (#7), 1:8
[42] = biological target: HLA-Cw*0401 (Cw4) (human); assay: Luminex, regular beads (#7), 1:8
[43] = biological target: Albumin (negative control beads) (human or bovine); assay: Luminex, regular beads (#7), 1:8
[44] = biological target: HLA-Cw*1502 (Cw15) (human); assay: Luminex, regular beads (#7), 1:8
[45] = biological target: HLA-Cw*1802 (Cw18) (human); assay: Luminex, regular beads (#7), 1:8
[46] = biological target: HLA-B*8201 (B82) (human); assay: Luminex, regular beads (#7), 1:8
[47] = biological target: HLA-Cw*0303 (Cw9) (human); assay: Luminex, regular beads (#7), 1:8
[48] = biological target: HLA-Cw*1203 (Cw12) (human); assay: Luminex, regular beads (#7), 1:8
[49] = biological target: HLA-Cw*1601 (Cw16) (human); assay: Luminex, regular beads (#7), 1:8

- MFI [1]: 0 MFI
- MFI [2]: 1840 MFI
- MFI [3]: 394 MFI
- MFI [4]: 3280 MFI
- MFI [5]: 2380 MFI
- MFI [6]: 5030 MFI
- MFI [7]: 2010 MFI
- MFI [8]: 492 MFI
- MFI [9]: 0 MFI
- MFI [10]: 904 MFI
- MFI [11]: 5970 MFI
- MFI [12]: 0 MFI
- MFI [13]: 709 MFI
- MFI [14]: 324 MFI
- MFI [15]: 1200 MFI
- MFI [16]: 8180 MFI
- MFI [17]: 3480 MFI
- MFI [18]: 7810 MFI
- MFI [19]: 4430 MFI
- MFI [20]: 624 MFI
- MFI [21]: 929 MFI
- MFI [22]: 351 MFI
- MFI [23]: 1880 MFI
- MFI [24]: 725 MFI
- MFI [25]: 4180 MFI
- MFI [26]: 4320 MFI
- MFI [27]: 1380 MFI
- MFI [28]: 2610 MFI
- MFI [29]: 1820 MFI
- MFI [30]: 1210 MFI
- MFI [31]: 634 MFI
- MFI [32]: 4320 MFI
- MFI [33]: 9170 MFI
- MFI [34]: 7860 MFI
- MFI [35]: 4270 MFI
- MFI [36]: 4010 MFI
- MFI [37]: 6970 MFI
- MFI [38]: 7620 MFI
- MFI [39]: 3710 MFI
- MFI [40]: 4540 MFI
- MFI [41]: 7180 MFI
- MFI [42]: 6290 MFI
- MFI [43]: 3790 MFI
- MFI [44]: 6170 MFI
- MFI [45]: 7980 MFI
- MFI [46]: 3860 MFI
- MFI [47]: 2860 MFI
Substance: IVIg GamaSTAN S/D (Talecris Biotherapeutics, USA) (antibody)

- MFI [1]: 1140 MFI
- MFI [2]: 3560 MFI
- MFI [3]: 749 MFI
- MFI [4]: 2400 MFI
- MFI [5]: 3380 MFI
- MFI [6]: 7150 MFI
- MFI [8]: 1450 MFI
- MFI [9]: 929 MFI
- MFI [10]: 2350 MFI
- MFI [11]: 2810 MFI
- MFI [12]: 507 MFI
- MFI [14]: 1510 MFI
- MFI [15]: 1710 MFI
- MFI [16]: 4230 MFI
- MFI [18]: 3580 MFI
- MFI [19]: 6010 MFI
- MFI [20]: 4470 MFI
- MFI [22]: 3410 MFI
- MFI [23]: 4460 MFI
- MFI [24]: 3330 MFI
- MFI [27]: 3950 MFI
- MFI [29]: 3760 MFI
- MFI [31]: 3150 MFI
- MFI [33]: 12000 MFI
- MFI [34]: 6560 MFI
- MFI [35]: 7240 MFI
- MFI [37]: 7550 MFI
- MFI [38]: 11800 MFI
- MFI [48]: 7100 MFI
- MFI [42]: 7530 MFI
- MFI [43]: 10800 MFI
- MFI [45]: 8430 MFI
- MFI [49]: 8460 MFI
- MFI [46]: 6060 MFI
- MFI [47]: 4260 MFI
Substance: IVIg Gamunex-C Lot NKLG1 (antibody)
